Experiment [1] has as its target T1, full length native human PD-1 (on stably transfected CHO-K1 cells; native on human PBMCs) (human, UniProt Q15116 25-288).
T1 construct: whole, on cells; The same entry is used for the CHO-K1 transfectants and for PD-1 natively expressed on human PBMCs; also called cell-surface human PD-1; human PD-1 CHO-K1 cells
The experiment can be described thus: flow cytometry on CHO-K1 cells stably expressing full length human PD-1; PE anti-human IgG4 detection. The method, then: (§1) Flow cytometry studies were performed with CHO-K1 cell line clones in which either full length native human or cynomolgus monkey PD-1 was stably transfected. An exemplary anti-PD-1 antibody (having heavy and light chains as set forth in SEQ ID NOs: 1 & 2, respectively) was diluted in 3-fold dilutions. Dilutions of exemplary antibody were added to human or cynomolgus monkey PD-1 expressing CHO-K1 cells (1E5 cells) and incubated on ice. Cells were washed twice and incubated on ice with PE-conjugated mouse anti-human IgG4 to detect antibody binding. Cells were washed and resuspended in the presence of propidium iodide to exclude dead cells and fixed and analyzed for fluorescence on a BD FACSArray instrument (BD Biosciences). Data were analyzed for median fluorescence intensity, graphed, and curves fitted for EC₅₀ value calculation in GraphPad Prism (GraphPad Software, Inc.) using a non-linear (sigmoidal) regression analysis.

The target in experiment [2] is T2, dimeric cynomolgus monkey PD-1 fusion protein (fused with mouse IgG2a Fc) (cynomolgus monkey; mouse, UniProt B0LAJ3 25-170).
T2 construct: Soluble dimeric analyte in SPR; also called cynomolgus PD-1; soluble PD-1 fusion
The experiment can be described thus: SPR (Biacore T200); cynomolgus monkey against human PD-1 fusion. The method, then:
(§2) SPR analyses were carried out using a Biacore T200 system and kinetic constants were determined using Biacore T200 Evaluation software. […] GE anti-human IgG (Fc-specific) was immobilized on a Biacore CM5 chip. An exemplary anti-PD-1 antibody (having heavy and light chains as set forth in SEQ ID NOs: 1 & 2, respectively) was then captured onto this surface […]. Next, dimeric human or cynomolgus monkey PD-1 fusion proteins (fused with mouse IgG2a Fc) in a two-fold serial dilution series were flowed over the captured exemplary antibody and dissociation was monitored. Capture and analyte binding were performed in HBS-EP+ buffer. Chips were regenerated between each run using 3 M MgCl₂. The resulting sensorgrams were fitted globally using a 1:1 binding model to calculate on- and off-rates (kassoc and kdissoc, respectively) and dissociation constants as a measure of overall affinity (KD).
(In general: Surface plasmon resonance follows binding to a sensor surface in real time, without labels.)

Experiment [3] concerns the target T1, full length native human PD-1 (on …). The experiment can be described thus: flow cytometry competition on human PD-1 CHO-K1 cells; competitor PD-L1-mFc-DyL650. The method, then: (§3) In these studies, human PD-L1 and PD-L2 mouse IgG1 Fc fusion proteins were expressed, purified, and labeled with DyL650. The dose-response of binding of both PD-L1 and PD-L2 to PD-1 CHO-K1 cells was determined. To quantify blocking of ligand binding to PD-1 CHO-K1 cells, exemplary anti-PD-1 antibody or IgG4 control antibody in a 3-fold dilution series was pre-mixed with PD-L1-mFc-DyL650 or PD-L2-mFc-DyL650. The mixture was added to human PD-1 CHO-K1 cells (3E5 cells) and incubated at 4° C. Cells were washed once and re-suspended in the presence of propidium iodide and DyL650-PD-L1 or DyL650-PD-L2. Binding was analyzed on a BD FACSArray (BD Bioscience), excluding dead cells.
A general note: A flow cytometer gives signals particle by particle.

For experiment [4] the target is unchanged. The experiment can be described thus: receptor occupancy by flow cytometry on human PBMCs (CD3+/IgG4+ cells, PE-labeled anti-IgG4), pre-incubation with a dilution series of the antibody [panel Human]. The source says: (§4) For these studies, PBMCs from healthy human donors or cynomolgus monkeys were used. Human PBMCs were isolated from buffy coats obtained from the Indiana Blood Center and cynomolgus monkey PBMCs were isolated from peripheral blood collected aseptically into sodium heparin obtained from Worldwide Primates, Inc. In both cases, separation was by Ficoll using Ficoll-Paque 1.077 and cryopreserved for later use.
(§5) On the day of the experiments, the cryopreserved cells were thawed and the cell concentration was adjusted to 2E6 cells/ml prior to resting overnight at 37° C. in a humidified CO₂ incubator. Cells were then pelleted and re-suspended in 1 ml of media and recounted. The cell concentration was adjusted to 4E5 cells/150 μl of media. Human AB Serum (40 μl/ml) was added to block Fc receptors. After centrifugation, the cells were incubated with exemplary anti-PD-1 antibody at 4° C. PBMCs were then washed three times before being split into two conditions. One set of cells was incubated with exemplary anti-PD-1 antibody and the other set with IgG4 for 30 minutes at 4° C. The PBMCs were then washed four times prior to being stained with FITC-labeled anti-CD3 and PE-labeled anti-IgG4 antibodies. […] The number of CD3+/IgG4+ cells was determined for each parameter and the percentage of occupancy for the exemplary anti-PD-1 antibody was determined as follows: […]

The target in experiment [5] is T3, full length native cynomolgus monkey PD-1 (on stably transfected CHO-K1 cells); native on cynomolgus monkey … (cynomolgus monkey, UniProt B0LAJ3 25-288).
T3 construct: The same entry is used for the CHO-K1 transfectants and for PD-1 natively expressed on cynomolgus monkey PBMCs; also called cell-surface cynomolgus monkey PD-1
The experiment can be described thus: flow cytometry on CHO-K1 cells stably expressing full length cynomolgus monkey PD-1; PE anti-human IgG4 detection. The method, then: as §1

The target of experiment [6] is T2, dimeric cynomolgus monkey PD-1 fusion …. The experiment can be described thus: SPR (Biacore T200); antibody captured on anti-human IgG Fc chip, dimeric PD-1-mouse IgG2a Fc as analyte, 1:1 model. The procedure: as §2
Experiment [7] deals with T4, dimeric human PD-1 fusion protein (fused with mouse IgG2a Fc) (human; mouse, UniProt Q15116 25-167, limits assumed).
T4 construct: Soluble dimeric analyte in SPR; also called soluble PD-1 fusion; not shown: mouse IgG2a Fc
The description is as above. The procedure: as §2

Experiment [8] concerns the target T3, full length native cynomolgus monkey …. The experiment can be described thus: receptor occupancy by flow cytometry on cynomolgus monkey PBMCs (CD3+/IgG4+ cells, PE-labeled anti-IgG4), pre-incubation with a dilution series of the antibody [panel Cynomolgus monkey].
Text: as §4, §5

For experiment [9], the target named is T1, full length native human PD-1 (on …). The experiment can be described thus: flow cytometry competition on human PD-1 CHO-K1 cells; competitor PD-L2-mFc-DyL650. The method, then:
as §3

What is called EC50 is the concentration needed to bring the measured effect to its halfway point. In general, IC50 refers to the concentration needed to halve the response being measured. By EC50 (read off the curve) is commonly meant the midpoint of the concentration-response curve. In general, Kd refers to the concentration at which binding is half-saturated. In general, koff refers to the rate constant with which the complex falls apart. The term kon denotes a measure of how fast the partners come together.

T4 sequence (Q15116 25-167 limits assumed): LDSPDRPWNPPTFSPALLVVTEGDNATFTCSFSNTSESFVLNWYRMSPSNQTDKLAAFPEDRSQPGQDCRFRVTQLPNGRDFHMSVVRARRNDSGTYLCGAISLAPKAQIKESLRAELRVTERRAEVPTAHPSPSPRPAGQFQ
T1 sequence (Q15116 25-288): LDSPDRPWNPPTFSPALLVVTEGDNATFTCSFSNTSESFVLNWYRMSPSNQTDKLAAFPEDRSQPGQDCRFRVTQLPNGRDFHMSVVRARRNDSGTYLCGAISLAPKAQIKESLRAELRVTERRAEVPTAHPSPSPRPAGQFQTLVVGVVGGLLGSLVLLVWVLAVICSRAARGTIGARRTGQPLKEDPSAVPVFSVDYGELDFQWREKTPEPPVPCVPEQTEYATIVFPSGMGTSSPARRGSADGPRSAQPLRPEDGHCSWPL
T2 sequence (B0LAJ3 entry or part of it limits assumed): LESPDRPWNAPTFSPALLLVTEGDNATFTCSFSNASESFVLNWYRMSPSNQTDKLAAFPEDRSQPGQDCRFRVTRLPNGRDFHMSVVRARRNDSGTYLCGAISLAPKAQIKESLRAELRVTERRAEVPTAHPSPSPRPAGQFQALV
T3 sequence (B0LAJ3 entry or part of it limits assumed): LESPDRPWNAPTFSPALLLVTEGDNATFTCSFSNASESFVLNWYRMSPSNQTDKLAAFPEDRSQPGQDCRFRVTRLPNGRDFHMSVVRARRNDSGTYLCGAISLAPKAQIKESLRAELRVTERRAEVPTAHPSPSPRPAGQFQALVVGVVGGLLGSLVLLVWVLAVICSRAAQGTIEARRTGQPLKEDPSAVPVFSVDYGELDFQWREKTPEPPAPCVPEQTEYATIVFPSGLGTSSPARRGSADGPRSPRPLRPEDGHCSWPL

B1: exemplary anti-PD-1 antibody (having heavy and light chains as set forth in SEQ ID NOs: 1 & 2, respectively) (antibody, human IgG4 S228P, kappa, V domains shown)
VH: EVQLLESGGGLVQPGGSLRLSCAASGFTFSSYDMSWVRQAPGKGLEWVSTISGGGSYTYYQDSVKGRFTISRDNSKNTLYLQMNSLRAEDTAVYYCASPYYAMDYWGQGTTVTVSS
VL: DIQLTQSPSFLSAYVGDRVTITCKASQDVGTAVAWYQQKPGKAPKLLIYWASTLHTGVPSRFSGSGSGTEFTLTISSLQPEDFATYYCQHYSSYPWTFGQGTKLEIKR
modifications: occupied N-glycosylation site at asparagine residue 293 of SEQ ID NO:1
notes: Humanized IgG4 (human IGHG4*01) with kappa light chain (IGKC*01); also called exemplary humanized monoclonal anti-PD-1 antibody; anti-PD-1 mAb
On to B1, for which the EC50 in experiment [1] was determined as 2 nM; in [5] it was 3.4 nM. Moreover, the “fold difference in KD against human PD-1” value in experiment [2] was less than 2 fold. For the same molecule, the IC50 is 1.8 nM in experiment [3] and 1.5 nM in experiment [9]. Further, the half-maximal effective concentration (EC50 (read off the curve)) in experiment [4] is roughly 0.2 µg/mL; in [8] it was roughly 0.1 µg/mL. Further, the Kd in [6] is 0.53 nM; in experiment [7] it was 0.3 nM. In addition, the results for the koff in [6] and in [7] were 0.00023 s⁻¹ and 0.00017 s⁻¹, respectively. Moreover, the on-rate (kon) in experiment [6] is 430000 M⁻¹ s⁻¹; in experiment [7], 570000 M⁻¹ s⁻¹.
